The values that follow are results of earlier work, collected in paper PMC5133818.

The target in the data set is cytochrome c (Homo sapiens) (UniProt P99999). In words: SPR. A general note: In SPR one partner is held on a chip, and binding of the other changes the refractive index at the surface.
Sequence of UniProt P99999 (P99999 2-105): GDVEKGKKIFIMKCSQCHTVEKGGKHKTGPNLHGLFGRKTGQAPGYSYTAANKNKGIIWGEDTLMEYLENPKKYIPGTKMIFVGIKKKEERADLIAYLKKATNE

neuroglobin (from UniProt Q9NPG2): the Kd was 200 µM.

As usually defined, the Kd is the concentration at which binding is half-saturated.
